± gives the uncertainty stated by the source.
Assay: amyloid nucleation score (Sup35N fusion, yeast selection) (log enrichment); library NNK2; higher = more nucleation; inactive = no reads after selection
Method in brief: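 Sup35N was fused to peptides of 20 random codons and expressed in psi-negative yeast, which were induced with 100 μM copper sulfate for 24 hours and then grown on medium lacking adenine and uracil for 7 days at 30°C. Plasmid inserts from input and output were sequenced on Illumina. The nucleation score is the DiMSum log enrichment of output over input reads, centred on the mode score of non-aggregating sequences. Sequences with under 100 input reads were left out, and random libraries had three technical output replicates.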
For WESCWIHLFHLSIHLTTNFY, the amyloid nucleation score was 2.08 ± 0.088.
For WESLVETSSTLFLRECYNVF, the amyloid nucleation score was -1.86 ± 0.53.
Substance WFACSLVAYRVLSSGTKAVM has an amyloid nucleation score of 0.204 ± 0.34.
With WFFTSS the amyloid nucleation score was -0.526 ± 0.76.
For WFLCWYSTPTLGCCKKEGSA, the amyloid nucleation score was 0.056 ± 0.33.
For WFMFDFFYF, the amyloid nucleation score was “inactive”.
In the case of WFTAVVLNS, the amyloid nucleation score is reported as 0.333 ± 0.25.
Work on WFVGFSMAYWNERDAGRPGM yielded an amyloid nucleation score of 1.8 ± 0.15.
In the case of WFVTNGCFYSLCLTHG, the amyloid nucleation score is reported as 5.996 ± 0.028.
In the case of WGCHRLEATVLLCVRVCIDC, the amyloid nucleation score is reported as -0.263 ± 1.1.
For WGESHWVASFFKFVRGSWDG, the amyloid nucleation score was -0.112 ± 0.54.
For WGHANFAEVWNDP, the amyloid nucleation score was 0.385 ± 0.6.
With WGHRVDCIFKSNLSA the amyloid nucleation score was -0.878 ± 0.31.
For WGNHSYLTVYRFFIRNWDVI, the amyloid nucleation score was -0.81 ± 0.55.
With WHNDSTG the amyloid nucleation score was 0.619 ± 0.22.
With WHQLKSTPLHFYSINTASFN the amyloid nucleation score was 0.123 ± 0.6.
For WHSVHYNLFCCF, the amyloid nucleation score was 8.689 ± 0.041.
In the case of WIIHMSSEAYYPSSFGRIVI, the amyloid nucleation score is reported as -0.872 ± 1.1.
Work on WIMVI yielded an amyloid nucleation score of -0.124 ± 0.26.
With WIQKPGLFASNGATATGGHV the amyloid nucleation score was 0.395 ± 0.56.
Work on WITVVRLIYLAFFQTGST yielded an amyloid nucleation score of -0.867 ± 0.63.
For WKLAHISLDFHFLYSR, the amyloid nucleation score was -0.269 ± 0.61.
Work on WKVSLGWNSHMCAGMETLWM yielded an amyloid nucleation score of 4.18 ± 0.048.
WLASPGDSSFMCLNVVVAAV showed an amyloid nucleation score of 0.723 ± 0.5.
For WLEDAS, the amyloid nucleation score was -0.557 ± 1.1.
WLFSMRGGDAPKSKRRSIHH showed an amyloid nucleation score of 4.96 ± 0.1.
With WLFTRRTLVWQSTHPNVMTT the amyloid nucleation score was “inactive”.
Work on WLIFLTVISISCCDQGVRF yielded an amyloid nucleation score of 7.401 ± 0.028.
For WLIMT, the amyloid nucleation score was “inactive”.
For WLIRL, the amyloid nucleation score was “inactive”.
With WLKNKLMLVLFTESLPNRSP the amyloid nucleation score was -1.02 ± 0.61.
With WLNLGMNLLLE the amyloid nucleation score was 3.77 ± 0.093.
Substance WLQAHGIVYLNICRNSGFVH has an amyloid nucleation score of 5.12 ± 0.058.
Substance WLRVTRLEIWQGKFSTNELT has an amyloid nucleation score of -0.755 ± 1.1.
With WLSDRASCYRESRCVEQ the amyloid nucleation score was -0.742 ± 0.42.
In the case of WLSSGAVRVKGCGFYNSRYN, the amyloid nucleation score is reported as “inactive”.
With WLWLND the amyloid nucleation score was -0.661 ± 1.1.
For WMGNLLGVRFMIKMIGYRAL, the amyloid nucleation score was “inactive”.
For WMRRAVAAND, the amyloid nucleation score was 0.186 ± 0.54.
Work on WMVIHSGADCQCL yielded an amyloid nucleation score of 0.605 ± 0.36.
In the case of WMWDFFYTGLLMRTF, the amyloid nucleation score is reported as “inactive”.
Substance WMYGWERSRVYDGNIVDRRW has an amyloid nucleation score of 0.035 ± 1.
With WNFKGRLLRMQLTRAHVNHT the amyloid nucleation score was “inactive”.
Substance WNHGIWS has an amyloid nucleation score of 1.03 ± 0.37.
With WNIVVSYNDLFV the amyloid nucleation score was -1.07 ± 0.76.
With WNKFNICFKGKAW the amyloid nucleation score was 0.123 ± 0.5.
Work on WNTAYGRVLASL yielded an amyloid nucleation score of 2.32 ± 0.092.
In the case of WNVSGC, the amyloid nucleation score is reported as -0.474 ± 0.55.
For WPFRESVY, the amyloid nucleation score was 0.41 ± 0.5.
For WPWVSGPVKQSRCFRIDLSM, the amyloid nucleation score was 0.459 ± 0.57.
With WQIRWVYVSIWSQFAQTRGV the amyloid nucleation score was 0.462 ± 0.29.
In the case of WRGGFWPCSVVLI, the amyloid nucleation score is reported as 0.354 ± 0.65.
Work on WRGGGLQLVQCDYRTLDNTQ yielded an amyloid nucleation score of -0.409 ± 0.37.
In the case of WRRPFM, the amyloid nucleation score is reported as 0.163 ± 0.3.
With WSDGLSPVKLVRLS the amyloid nucleation score was 3.91 ± 0.094.
For WSFDIAVTAR, the amyloid nucleation score was “inactive”.
WSFVGSTLSRDGSHNQDVHW gave an amyloid nucleation score of 3.58 ± 0.098.
In the case of WSGVSGNLT, the amyloid nucleation score is reported as 0.145 ± 0.4.
For WSIPLSLMQSIRSCYNELIN, the amyloid nucleation score was 3.67 ± 0.11.
Substance WSSERWPEWIG has an amyloid nucleation score of 0.027 ± 0.24.
WSSKGVCYEVLCRFKVLQ showed an amyloid nucleation score of 2.99 ± 0.084.
Substance WSTLGIDVSSCT has an amyloid nucleation score of -1.52 ± 0.54.
In the case of WTKEAKIYSCFCSHF, the amyloid nucleation score is reported as 8.663 ± 0.08.
WTSPGSLPKRALCGRVERYA gave an amyloid nucleation score of -0.53 ± 0.29.
WVCNFVMIRLGIFEF showed an amyloid nucleation score of 1.78 ± 0.14.
WVDGVLGFKSTLARQSETGG gave an amyloid nucleation score of -0.121 ± 1.1.
For WVGHFIDISDATGRPWHMKA, the amyloid nucleation score was -0.107 ± 0.53.
Substance WVIDACLNRPLSERSYYRNK has an amyloid nucleation score of 0.767 ± 0.58.
In the case of WVIFSLVKWCMFSNDVVWVA, the amyloid nucleation score is reported as -0.944 ± 0.34.
In the case of WVLCRRNLLGH, the amyloid nucleation score is reported as “inactive”.
In the case of WVQLWESASFGNRLVGNMSL, the amyloid nucleation score is reported as -0.352 ± 1.
WVSMVVCMVSYNSYFE gave an amyloid nucleation score of 5.48 ± 0.062.
With WVVLLFKCFFEVLMLPLKVI the amyloid nucleation score was -0.29 ± 0.38.
Work on WWHAAFFVAAFPNA yielded an amyloid nucleation score of 2.19 ± 0.17.
With WWKAGFSCDTEMSRRPHTLV the amyloid nucleation score was -0.168 ± 1.1.
In the case of WYDSIMT, the amyloid nucleation score is reported as -0.084 ± 0.35.
In the case of WYGCMVIAQWGFYYENNTSW, the amyloid nucleation score is reported as “inactive”.
WYIRPSKTCEVSFGYPRRSW showed an amyloid nucleation score of -0.891 ± 1.1.
With WYRLAFQLELPLFHRSYRRW the amyloid nucleation score was 0.288 ± 0.37.
Work on WYRTGMGNLLSRGDVDTVRT yielded an amyloid nucleation score of 0.131 ± 0.55.
WYVLFSMMWA gave an amyloid nucleation score of -1.36 ± 0.78.
Work on WYWPCKGTREFKFNLYECSG yielded an amyloid nucleation score of 0.517 ± 0.41.
For YADKSKTCNYFSQLP, the amyloid nucleation score was 0.016 ± 1.1.
Work on YALWIVMLVP yielded an amyloid nucleation score of -0.104 ± 0.49.
Work on YANDELLGAGGADS yielded an amyloid nucleation score of 0.652 ± 0.35.
Substance YANMGYQGLIRGIGVLDWIK has an amyloid nucleation score of -0.119 ± 0.36.
Substance YARANYYALLWPRLTFPMIL has an amyloid nucleation score of -1.41 ± 0.78.
Substance YAVLIMYYALAKAWWSLKYG has an amyloid nucleation score of -0.002 ± 1.
Work on YCANDVVMLSA yielded an amyloid nucleation score of 1.06 ± 0.17.
With YCLELIGSLTHALPVKSLLV the amyloid nucleation score was “inactive”.
For YCNIPNRPVSKALRNHLS, the amyloid nucleation score was “inactive”.
YCQSIVFCSI showed an amyloid nucleation score of 3.84 ± 0.086.
In the case of YCSQAYHAGRRSALEQDSCM, the amyloid nucleation score is reported as 0.734 ± 0.81.
Work on YDGANWRSKGWLDLFSIMKQ yielded an amyloid nucleation score of -1.23 ± 0.75.
YDKFPRNVGESYEHRCSWSE gave an amyloid nucleation score of 0.458 ± 0.8.
YDLRVMWRNVSSDFLREKVC gave an amyloid nucleation score of -0.249 ± 1.
YDPDFSGYCYFAIILYIIFS showed an amyloid nucleation score of -1.5 ± 0.62.
Substance YDVRMSKMFAYTLSSEC has an amyloid nucleation score of 0.203 ± 0.53.
Work on YFDTYLMTSRGCSIFMAQFR yielded an amyloid nucleation score of 1.67 ± 0.28.
With YFGTVHAILGFICLCLIIFQ the amyloid nucleation score was 3.66 ± 0.085.
YFKFAGV gave an amyloid nucleation score of 4.16 ± 0.095.
Work on YFLHCQPLVWDTLRVRQMVR yielded an amyloid nucleation score of -0.062 ± 0.35.
YFMLRSVTL showed an amyloid nucleation score of 3.75 ± 0.1.
In the case of YFRCVASCVT, the amyloid nucleation score is reported as “inactive”.
For YFRHVVAGHLRCCLLVSARD, the amyloid nucleation score was 2.7 ± 0.13.
Substance YFRSYLLHTLLG has an amyloid nucleation score of 0.479 ± 0.45.
In the case of YFRWGLSSKASLWHVRWALG, the amyloid nucleation score is reported as 0.409 ± 0.8.
Substance YFSKMS has an amyloid nucleation score of -0.817 ± 0.43.
YFSQQSEGSALCVLKHWVKS showed an amyloid nucleation score of 0.253 ± 0.42.
For YFSRWLFFYECKGDNLLRRE, the amyloid nucleation score was -0.512 ± 0.76.
YFTGSPVVHRLLSYNLFLRF gave an amyloid nucleation score of 5.726 ± 0.039.
YFTWQHLRNSRMWV gave an amyloid nucleation score of 3.34 ± 0.11.
With YFVEYSW the amyloid nucleation score was 0.542 ± 0.47.
Work on YFWSRLRFVCRDRSGKNYCS yielded an amyloid nucleation score of -0.138 ± 0.76.
For YFYYRFGHDVVF, the amyloid nucleation score was “inactive”.
In the case of YGKYSFSWEIRCLCEMTTKN, the amyloid nucleation score is reported as -0.608 ± 0.78.
With YGLALFTRI the amyloid nucleation score was -0.347 ± 0.44.
YGLWIKS gave an amyloid nucleation score of -0.127 ± 1.1.
YGNCVHHVRGGLHAYRDHNC showed an amyloid nucleation score of -0.137 ± 0.33.
For YGRLRLVA, the amyloid nucleation score was -0.637 ± 0.54.
With YGRVITGCLCQCIGDDGCGD the amyloid nucleation score was 6.595 ± 0.039.
YGSKTRRVWGLRGYRDEGYR gave an amyloid nucleation score of -0.413 ± 0.74.
With YGSQISLTKEARQEKDTSGS the amyloid nucleation score was -0.815 ± 0.34.
With YGVEAECLEKNAALLCYNID the amyloid nucleation score was “inactive”.
In the case of YGVFRSESRPTCLKSLDRMK, the amyloid nucleation score is reported as 0.575 ± 0.34.
For YGVYGHFKTLGNLTNRDVVS, the amyloid nucleation score was -1.36 ± 0.75.
In the case of YHHIV, the amyloid nucleation score is reported as “inactive”.
YIAIEYLFSFRGFRGTGVMG gave an amyloid nucleation score of 0.034 ± 0.63.
In the case of YIDRVTYRLSTGSTMEAWSA, the amyloid nucleation score is reported as 0.688 ± 0.15.
